B1: Keratin, type I cytoskeletal 40 (Homo sapiens), Q6A162 (parent)
chain: MTSDCSSTHCSPESCGTASGCAPASSCSVETACLPGTCATSRCQTPSFLSRSRGLTGCLLPCYFTGSCNSPCLVGNCAWCEDGVFTSNEKETMQFLNDRLASYLEKVRSLEETNAELESRIQEQCEQDIPMVCPDYQRYFNTIEDLQQKILCTKAENSRLAVQLDNCKLATDDFKSKYESELSLRQLLEADISSLHGILEELTLCKSDLEAHVESLKEDLLCLKKNHEEEVNLLREQLGDRLSVELDTAPTLDLNRVLDEMRCQCETVLANNRREAEEWLAVQTEELNQQQLSSAEQLQGCQMEILELKRTASALEIELQAQQSLTESLECTVAETEAQYSSQLAQIQCLIDNLENQLAEIRCDLERQNQEYQVLLDVKARLEGEINTYWGLLDSEDSRLSCSPCSTTCTSSNTCEPCSAYVICTVENCCL
B2: Splicing factor 45 (Homo sapiens), Q96I25 (parent)
chain: MSLYDDLGVETSDSKTEGWSKNFKLLQSQLQVKKAALTQAKSQRTKQSTVLAPVIDLKRGGSSDDRQIVDTPPHVAAGLKDPVPSGFSAGEVLIPLADEYDPMFPNDYEKVVKRQREERQRQRELERQKEIEEREKRRKDRHEASGFARRPDPDSDEDEDYERERRKRSMGGAAIAPPTSLVEKDKELPRDFPYEEDSRPRSQSSKAAIPPPVYEEQDRPRSPTGPSNSFLANMGGTVAHKIMQKYGFREGQGLGKHEQGLSTALSVEKTSKRGGKIIVGDATEKDASKKSDSNPLTEILKCPTKVVLLRNMVGAGEVDEDLEVETKEECEKYGKVGKCVIFEIPGAPDDEAVRIFLEFERVESAIKAVVDLNGRYFGGRVVKACFYNLDKFRVLDLAEQV
partner: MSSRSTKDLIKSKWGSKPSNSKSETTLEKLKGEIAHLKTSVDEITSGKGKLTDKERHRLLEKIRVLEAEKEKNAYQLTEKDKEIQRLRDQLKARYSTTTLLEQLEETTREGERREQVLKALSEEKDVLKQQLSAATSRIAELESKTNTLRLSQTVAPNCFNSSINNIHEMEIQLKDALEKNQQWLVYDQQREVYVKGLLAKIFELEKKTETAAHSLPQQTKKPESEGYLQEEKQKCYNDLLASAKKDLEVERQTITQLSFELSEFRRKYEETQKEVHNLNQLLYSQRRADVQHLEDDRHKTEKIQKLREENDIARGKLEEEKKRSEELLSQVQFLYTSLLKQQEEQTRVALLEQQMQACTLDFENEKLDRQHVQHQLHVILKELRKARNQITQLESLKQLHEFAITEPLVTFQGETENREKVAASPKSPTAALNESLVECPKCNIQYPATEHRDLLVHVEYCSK
B3: Pleckstrin homology domain-containing family N member 1 (Homo sapiens), Q494U1 (parent)
chain: MGNSHCVPQAPRRLRASFSRKPSLKGNREDSARMSAGLPGPEAARSGDAAANKLFHYIPGTDILDLENQRENLEQPFLSVFKKGRRRVPVRNLGKVVHYAKVQLRFQHSQDVSDCYLELFPAHLYFQAHGSEGLTFQGLLPLTELSVCPLEGSREHAFQITGPLPAPLLVLCPSRAELDRWLYHLEKQTALLGGPRRCHSAPPQRRLTRLRTASGHEPGGSAVCASRVKLQHLPAQEQWDRLLVLYPTSLAIFSEELDGLCFKGELPLRAVHINLEEKEKQIRSFLIEGPLINTIRVVCASYEDYGHWLLCLRAVTHREGAPPLPGAESFPGSQVMGSGRGSLSSGGQTSWDSGCLAPPSTRTSHSLPESSVPSTVGCSSQHTPDQANSDRASIGRRRTELRRSGSSRSPGSKARAEGRGPVTPLHLDLTQLHRLSLESSPDAPDHTSETSHSPLYADPYTPPATSHRRVTDVRGLEEFLSAMQSARGPTPSSPLPSVPVSVPASDPRSCSSGPAGPYLLSKKGALQSRAAQRHRGSAKDGGPQPPDAPQLVSSAREGSPEPWLPLTDGRSPRRSRDPGYDHLWDETLSSSHQKCPQLGGPEASGGLVQWI
partner: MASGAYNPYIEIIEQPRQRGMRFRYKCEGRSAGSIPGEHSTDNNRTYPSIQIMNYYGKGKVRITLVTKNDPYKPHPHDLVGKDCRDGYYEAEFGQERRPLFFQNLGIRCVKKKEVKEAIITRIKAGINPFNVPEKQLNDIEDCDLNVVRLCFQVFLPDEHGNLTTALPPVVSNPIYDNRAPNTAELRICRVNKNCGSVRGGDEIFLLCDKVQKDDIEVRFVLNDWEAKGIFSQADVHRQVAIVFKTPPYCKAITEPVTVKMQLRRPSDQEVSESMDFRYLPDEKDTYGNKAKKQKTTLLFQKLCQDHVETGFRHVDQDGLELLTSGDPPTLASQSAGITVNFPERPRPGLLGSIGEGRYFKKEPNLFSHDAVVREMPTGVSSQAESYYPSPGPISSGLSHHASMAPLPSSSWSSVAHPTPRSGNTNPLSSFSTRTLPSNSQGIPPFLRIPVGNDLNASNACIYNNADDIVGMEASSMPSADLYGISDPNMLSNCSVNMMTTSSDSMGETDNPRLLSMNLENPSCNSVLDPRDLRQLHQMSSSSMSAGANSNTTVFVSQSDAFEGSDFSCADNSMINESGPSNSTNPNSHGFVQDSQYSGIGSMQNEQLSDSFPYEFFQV
B4: Syntenin-2 (Homo sapiens), Q9H190 (parent)
chain: MSSLYPSLEDLKVDQAIQAQVRASPKMPALPVQATAISPPPVLYPNLAELENYMGLSLSSQEVQESLLQIPEGDSTAVSGPGPGQMVAPVTGYSLGVRRAEIKPGVREIHLCKDERGKTGLRLRKVDQGLFVQLVQANTPASLVGLRFGDQLLQIDGRDCAGWSSHKAHQVVKKASGDKIVVVVRDRPFQRTVTMHKDSMGHVGFVIKKGKIVSLVKGSSAARNGLLTNHYVCEVDGQNVIGLKDKKIMEILATAGNVVTLTIIPSVIYEHMVKKLPPVLLHHTMDHSIPDA
B5: Atos homolog protein B (Homo sapiens), Q7L5A3 (parent)
chain: MRHVQAEPSPSSEPEAGPSQPPVRQGALQGGLLMGYSPAGGATSPGVYQVSIFSPPAGTSEPHRALKRQAPSTEGPRELKRGPGLGAREGLPPEEPSTVGLLGPEGPGLGLGVASQHFSHRGLCVVEQRSSVTSSWTSGAWSPPCPPSNASCNTLHTRDWASPDPGGQGSLGESPGPAPPGQLHTLDTDLHSLAQIGGKSPVAGVGNGGSLWPRESPGTANGHSPEHTPPGPGPPGPCPTKRRLLPAGEAPDVSSEEEGPAPRRRRGSLGHPTAANSSDAKATPFWSHLLPGPKEPVLDPTDCGPMGRRLKGARRLKLSPLRSLRKGPGLLSPPSASPVPTPAVSRTLLGNFEESLLRGRFAPSGHIEGFTAEIGASGSYCPQHVTLPVTVTFFDVSEQNAPAPFLGIVDLNPLGRKGYSVPKVGTVQVTLFNPNQTVVKMFLVTFDFSDMPAAHMTFLRHRLFLVPVGEEGNANPTHRLLCYLLHLRFRSSRSGRLSLHGDIRLLFSRRSLELDTGLPYELQAVTEAPHNPRYSPLP
B6: Lymphotoxin-alpha (Homo sapiens), P01374 (parent)
chain: MTPPERLFLPRVCGTTLHLLLLGLLLVLLPGAQGLPGVGLTPSAAQTARQHPKMHLAHSTLKPAAHLIGDPSKQNSLLWRANTDRAFLQDGFSLSNNSLLVPTSGIYFVYSQVVFSGKAYSPKATSSPLYLAHEVQLFSSQYPFHVPLLSSQKMVYPGLQEPWLHSMYHGAAFQLTQGDQLSTHTDGIPHLVLSPSTVFFGAFAL
partner: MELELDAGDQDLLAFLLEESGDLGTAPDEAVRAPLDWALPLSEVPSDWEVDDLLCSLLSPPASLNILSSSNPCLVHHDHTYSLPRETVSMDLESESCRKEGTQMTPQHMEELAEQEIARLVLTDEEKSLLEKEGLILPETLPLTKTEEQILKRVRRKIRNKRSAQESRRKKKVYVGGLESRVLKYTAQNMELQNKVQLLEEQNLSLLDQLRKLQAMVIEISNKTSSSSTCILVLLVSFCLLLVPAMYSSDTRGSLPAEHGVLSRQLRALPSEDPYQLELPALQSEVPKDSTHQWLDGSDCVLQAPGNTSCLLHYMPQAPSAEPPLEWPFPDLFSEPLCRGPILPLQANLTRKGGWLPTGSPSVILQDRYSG
B7: Tuftelin-interacting protein 11 (Homo sapiens), Q9UBB9 (parent)
chain: MSLSHLYRDGEGRIDDDDDERENFEITDWDLQNEFNPNRQRHWQTKEEATYGVWAERDSDDERPSFGGKRARDYSAPVNFISAGLKKGAAEEAELEDSDDEEKPVKQDDFPKDFGPRKLKTGGNFKPSQKGFAGGTKSFMDFGSWERHTKGIGQKLLQKMGYVPGRGLGKNAQGIINPIEAKQRKGKGAVGAYGSERTTQSMQDFPVVDSEEEAEEEFQKELSQWRKDPSGSKKKPKYSYKTVEELKAKGRISKKLTAPQKELSQVKVIDMTGREQKVYYSYSQISHKHNVPDDGLPLQSQQLPQSGKEAKAPGFALPELEHNLQLLIDLTEQEIIQNDRQLQYERDMVVNLFHELEKMTEVLDHEERVISNLSKVLEMVEECERRMQPDCSNPLTLDECARIFETLQDKYYEEYRMSDRVDLAVAIVYPLMKEYFKEWDPLKDCTYGTEIISKWKSLLENDQLLSHGGQDLSADAFHRLIWEVWMPFVRNIVTQWQPRNCDPMVDFLDSWVHIIPVWILDNILDQLIFPKLQKEVENWNPLTDTVPIHSWIHPWLPLMQARLEPLYSPIRSKLSSALQKWHPSDSSAKLILQPWKDVFTPGSWEAFMVKNIVPKLGMCLGELVINPHQQHMDAFYWVIDWEGMISVSSLVGLLEKHFFPKWLQVLCSWLSNSPNYEEITKWYLGWKSMFSDQVLAHPSVKDKFNEALDIMNRAVSSNVGAYMQPGARENIAYLTHTERRKDFQYEAMQERREAENMAQRGIGVAASSVPMNFKDLIETKAEEHNIVFMPVIGKRHEGKQLYTFGRIVIYIDRGVVFVQGEKTWVPTSLQSLIDMAK
partner: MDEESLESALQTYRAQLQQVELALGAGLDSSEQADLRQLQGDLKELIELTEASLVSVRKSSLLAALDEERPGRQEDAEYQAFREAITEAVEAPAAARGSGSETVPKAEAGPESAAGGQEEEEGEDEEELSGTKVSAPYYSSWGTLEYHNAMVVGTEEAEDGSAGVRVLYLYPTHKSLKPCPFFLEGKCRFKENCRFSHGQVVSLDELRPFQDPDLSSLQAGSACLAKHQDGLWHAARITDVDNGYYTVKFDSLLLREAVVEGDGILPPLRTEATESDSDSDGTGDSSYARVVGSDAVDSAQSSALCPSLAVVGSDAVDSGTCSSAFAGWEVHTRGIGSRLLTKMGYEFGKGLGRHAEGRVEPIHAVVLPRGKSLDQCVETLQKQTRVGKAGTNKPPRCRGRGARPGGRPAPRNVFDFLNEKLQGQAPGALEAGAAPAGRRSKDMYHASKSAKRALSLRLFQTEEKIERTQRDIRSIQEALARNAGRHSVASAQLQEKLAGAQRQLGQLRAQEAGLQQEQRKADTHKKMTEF

Variants of: B1
Details: with wt1_human WT1, P19544
Sequence of wt1_human WT1, P19544 (P19544 whole entry): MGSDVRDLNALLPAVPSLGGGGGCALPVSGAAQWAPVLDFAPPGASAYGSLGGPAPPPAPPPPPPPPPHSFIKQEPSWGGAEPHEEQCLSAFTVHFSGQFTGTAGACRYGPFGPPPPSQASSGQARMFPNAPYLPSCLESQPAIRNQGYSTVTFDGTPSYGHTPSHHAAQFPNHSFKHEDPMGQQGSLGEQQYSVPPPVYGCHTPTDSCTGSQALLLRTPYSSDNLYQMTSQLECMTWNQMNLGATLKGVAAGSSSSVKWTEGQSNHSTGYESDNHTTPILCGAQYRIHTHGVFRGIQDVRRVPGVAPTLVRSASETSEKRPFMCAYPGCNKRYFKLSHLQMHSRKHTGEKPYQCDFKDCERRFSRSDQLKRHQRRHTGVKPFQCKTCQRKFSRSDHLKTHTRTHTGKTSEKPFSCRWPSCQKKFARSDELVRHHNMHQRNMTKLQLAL

Row | Variant | effect of a mutation on the interaction
1 | A115T | with no effect
2 | C265Y | with no effect

Variants of: B1
Details: with k2c4_human KRT4, P19013
Sequence of k2c4_human KRT4, P19013 (P19013 whole entry): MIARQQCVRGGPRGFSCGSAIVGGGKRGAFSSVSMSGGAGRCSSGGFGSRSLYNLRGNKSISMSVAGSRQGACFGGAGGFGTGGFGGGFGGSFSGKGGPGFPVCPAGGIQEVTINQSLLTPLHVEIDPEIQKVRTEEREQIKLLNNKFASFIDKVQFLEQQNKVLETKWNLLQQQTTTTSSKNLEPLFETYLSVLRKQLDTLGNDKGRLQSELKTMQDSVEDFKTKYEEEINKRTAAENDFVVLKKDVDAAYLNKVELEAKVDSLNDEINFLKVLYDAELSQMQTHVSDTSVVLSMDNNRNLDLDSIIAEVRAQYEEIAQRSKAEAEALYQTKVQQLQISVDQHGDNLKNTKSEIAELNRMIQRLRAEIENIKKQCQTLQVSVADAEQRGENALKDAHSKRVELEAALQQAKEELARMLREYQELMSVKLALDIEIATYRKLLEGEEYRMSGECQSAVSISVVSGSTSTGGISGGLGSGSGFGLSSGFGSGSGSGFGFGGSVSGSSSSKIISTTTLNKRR

Row | Variant | effect of a mutation on the interaction
3 | A115T | with no effect
4 | C265Y | with no effect

Variants of: B1
Details: with mta1_human MTA1, Q13330
Sequence of mta1_human MTA1, Q13330 (Q13330 whole entry): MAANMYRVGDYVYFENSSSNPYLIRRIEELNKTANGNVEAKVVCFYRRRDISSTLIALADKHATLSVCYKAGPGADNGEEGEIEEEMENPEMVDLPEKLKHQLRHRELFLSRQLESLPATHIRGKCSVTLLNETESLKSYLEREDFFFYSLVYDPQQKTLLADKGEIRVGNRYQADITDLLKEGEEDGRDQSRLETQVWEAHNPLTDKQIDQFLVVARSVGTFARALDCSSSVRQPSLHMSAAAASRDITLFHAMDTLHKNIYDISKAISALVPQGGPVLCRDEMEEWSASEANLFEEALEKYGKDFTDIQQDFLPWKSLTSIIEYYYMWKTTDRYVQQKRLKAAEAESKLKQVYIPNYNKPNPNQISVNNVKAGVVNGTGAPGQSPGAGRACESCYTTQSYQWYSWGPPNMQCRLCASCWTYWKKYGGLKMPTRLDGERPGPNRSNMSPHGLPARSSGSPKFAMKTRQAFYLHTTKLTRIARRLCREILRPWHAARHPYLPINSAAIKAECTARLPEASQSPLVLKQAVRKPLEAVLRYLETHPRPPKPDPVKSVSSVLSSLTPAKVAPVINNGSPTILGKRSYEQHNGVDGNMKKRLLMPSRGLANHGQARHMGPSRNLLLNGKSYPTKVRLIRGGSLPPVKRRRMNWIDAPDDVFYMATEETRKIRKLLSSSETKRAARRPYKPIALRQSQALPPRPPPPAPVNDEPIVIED

Row | Variant | effect of a mutation on the interaction
5 | A115T | with no effect
6 | C265Y | with no effect

Variants of: B1
Details: with prs8_human PSMC5, P62195
Sequence of prs8_human PSMC5, P62195 (P62195 whole entry): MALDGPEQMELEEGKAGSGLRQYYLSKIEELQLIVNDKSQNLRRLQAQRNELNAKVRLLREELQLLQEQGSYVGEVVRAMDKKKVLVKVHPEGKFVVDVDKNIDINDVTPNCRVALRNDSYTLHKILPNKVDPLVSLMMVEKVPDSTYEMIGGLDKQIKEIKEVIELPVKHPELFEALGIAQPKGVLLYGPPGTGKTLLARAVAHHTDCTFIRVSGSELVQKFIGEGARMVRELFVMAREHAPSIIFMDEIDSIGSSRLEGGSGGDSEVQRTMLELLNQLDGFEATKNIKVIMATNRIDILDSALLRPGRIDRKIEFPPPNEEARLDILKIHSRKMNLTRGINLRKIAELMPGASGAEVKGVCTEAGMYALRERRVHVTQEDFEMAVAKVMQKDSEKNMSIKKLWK

Row | Variant | effect of a mutation on the interaction
7 | A115T | with no effect
8 | C265Y | with no effect

Variants of: B1
Details: with snai1_human SNAI1, O95863
Sequence of snai1_human SNAI1, O95863 (O95863 whole entry): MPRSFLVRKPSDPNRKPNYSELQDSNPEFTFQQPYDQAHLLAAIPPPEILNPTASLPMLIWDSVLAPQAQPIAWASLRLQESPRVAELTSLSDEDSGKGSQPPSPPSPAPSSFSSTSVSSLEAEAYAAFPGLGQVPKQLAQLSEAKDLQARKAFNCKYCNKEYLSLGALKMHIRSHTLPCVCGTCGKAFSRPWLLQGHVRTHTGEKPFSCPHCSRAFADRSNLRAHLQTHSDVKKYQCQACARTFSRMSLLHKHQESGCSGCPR

Row | Variant | effect of a mutation on the interaction
9 | A115T | with no effect
10 | C265Y | with no effect

Variants of: B2
Details: with cep55_human CEP55, Q53EZ4

Row | Variant | effect of a mutation on the interaction
11 | T224I | with no effect

Variants of: B3
Details: with rel_human REL

Row | Variant | effect of a mutation on the interaction
12 | R487P | with no effect

Variants of: B4
Details: with zch10_human ZCCHC10, Q8TBK6
Sequence of zch10_human ZCCHC10, Q8TBK6 (Q8TBK6 whole entry): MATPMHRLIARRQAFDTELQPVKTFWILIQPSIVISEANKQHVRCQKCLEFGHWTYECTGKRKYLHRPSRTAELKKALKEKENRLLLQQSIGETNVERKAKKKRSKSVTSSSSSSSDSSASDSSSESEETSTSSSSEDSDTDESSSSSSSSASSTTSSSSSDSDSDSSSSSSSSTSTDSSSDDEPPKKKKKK

Row | Variant | effect of a mutation on the interaction
13 | G225R | disrupting interaction strength
14 | V182M | with no effect

Variants of: B4
Details: with t23o_human TDO2, P48775
Sequence of t23o_human TDO2, P48775 (P48775 whole entry, looked up): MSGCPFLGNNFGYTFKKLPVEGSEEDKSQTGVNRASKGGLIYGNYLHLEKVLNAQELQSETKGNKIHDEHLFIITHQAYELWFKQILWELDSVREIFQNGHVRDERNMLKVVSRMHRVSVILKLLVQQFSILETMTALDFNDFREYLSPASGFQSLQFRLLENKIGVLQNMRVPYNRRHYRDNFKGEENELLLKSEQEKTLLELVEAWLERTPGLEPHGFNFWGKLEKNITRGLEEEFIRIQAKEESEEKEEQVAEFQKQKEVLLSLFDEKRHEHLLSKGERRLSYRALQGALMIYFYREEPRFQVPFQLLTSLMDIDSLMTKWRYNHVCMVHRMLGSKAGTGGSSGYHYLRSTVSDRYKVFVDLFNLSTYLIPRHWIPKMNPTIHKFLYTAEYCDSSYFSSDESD

Row | Variant | effect of a mutation on the interaction
15 | G225R | disrupting interaction strength
16 | V182M | with no effect

Variants of: B4
Details: with lyar_human LYAR

Row | Variant | effect of a mutation on the interaction
17 | G225R | disrupting interaction strength
18 | V182M | with no effect

Variants of: B4
Details: with ytdc1_human YTHDC1, Q96MU7

Row | Variant | effect of a mutation on the interaction
19 | G225R | disrupting interaction strength
20 | V182M | disrupting interaction strength

Variants of: B4
Details: with FAM133A

Row | Variant | effect of a mutation on the interaction
21 | G225R | disrupting interaction strength
22 | V182M | with no effect

Variants of: B5
Details: with dnja3_human DNAJA3, Q96EY1
Sequence of dnja3_human DNAJA3, Q96EY1 (Q96EY1 whole entry): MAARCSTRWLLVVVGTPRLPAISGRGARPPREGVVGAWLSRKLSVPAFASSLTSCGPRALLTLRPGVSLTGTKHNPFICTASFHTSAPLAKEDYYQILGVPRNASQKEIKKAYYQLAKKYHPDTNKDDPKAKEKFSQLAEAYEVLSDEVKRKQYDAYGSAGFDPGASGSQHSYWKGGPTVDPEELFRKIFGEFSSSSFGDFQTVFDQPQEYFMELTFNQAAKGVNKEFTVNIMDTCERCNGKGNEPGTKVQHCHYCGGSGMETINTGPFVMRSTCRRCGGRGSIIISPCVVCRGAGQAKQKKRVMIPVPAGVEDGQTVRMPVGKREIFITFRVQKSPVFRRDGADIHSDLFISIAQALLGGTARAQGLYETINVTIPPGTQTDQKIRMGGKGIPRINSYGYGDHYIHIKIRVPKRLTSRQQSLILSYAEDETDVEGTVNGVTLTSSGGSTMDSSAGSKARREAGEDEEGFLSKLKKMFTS

Row | Variant | effect of a mutation on the interaction
23 | A178T | with no effect

Variants of: B5
Details: with cep70_human CEP70, Q8NHQ1
Sequence of cep70_human CEP70, Q8NHQ1 (Q8NHQ1 whole entry): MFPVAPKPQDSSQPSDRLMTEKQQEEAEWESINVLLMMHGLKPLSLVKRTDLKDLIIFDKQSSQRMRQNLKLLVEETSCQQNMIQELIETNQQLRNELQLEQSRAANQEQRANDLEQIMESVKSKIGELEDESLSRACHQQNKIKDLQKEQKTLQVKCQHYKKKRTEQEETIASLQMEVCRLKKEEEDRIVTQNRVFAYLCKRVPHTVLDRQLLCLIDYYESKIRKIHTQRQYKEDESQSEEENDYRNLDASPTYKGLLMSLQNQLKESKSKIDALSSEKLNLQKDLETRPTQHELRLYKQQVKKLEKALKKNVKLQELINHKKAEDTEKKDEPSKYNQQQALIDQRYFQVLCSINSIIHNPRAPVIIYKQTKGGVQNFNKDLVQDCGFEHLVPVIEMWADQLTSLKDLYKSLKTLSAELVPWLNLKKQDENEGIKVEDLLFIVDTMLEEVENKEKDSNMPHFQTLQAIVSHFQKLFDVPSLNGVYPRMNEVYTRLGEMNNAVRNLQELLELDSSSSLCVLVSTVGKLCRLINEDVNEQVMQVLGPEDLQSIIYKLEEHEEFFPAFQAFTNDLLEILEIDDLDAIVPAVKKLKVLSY

Row | Variant | effect of a mutation on the interaction
24 | A178T | with no effect

Variants of: B5
Details: with ikzf1_human IKZF1, Q13422
Sequence of ikzf1_human IKZF1, Q13422 (Q13422 whole entry): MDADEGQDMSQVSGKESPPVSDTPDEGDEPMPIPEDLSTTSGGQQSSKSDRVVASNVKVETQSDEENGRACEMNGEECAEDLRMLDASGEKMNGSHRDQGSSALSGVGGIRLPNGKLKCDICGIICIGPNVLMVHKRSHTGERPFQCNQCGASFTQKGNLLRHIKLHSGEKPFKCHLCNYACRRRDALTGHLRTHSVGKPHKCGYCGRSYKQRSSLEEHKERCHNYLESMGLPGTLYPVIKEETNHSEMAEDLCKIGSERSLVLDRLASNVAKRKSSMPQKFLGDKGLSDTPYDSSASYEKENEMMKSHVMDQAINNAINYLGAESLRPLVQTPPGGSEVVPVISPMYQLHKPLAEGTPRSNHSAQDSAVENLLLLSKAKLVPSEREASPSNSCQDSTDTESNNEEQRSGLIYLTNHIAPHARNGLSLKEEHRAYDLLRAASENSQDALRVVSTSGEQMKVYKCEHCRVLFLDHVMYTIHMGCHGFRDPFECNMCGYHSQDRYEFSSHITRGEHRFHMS

Row | Variant | effect of a mutation on the interaction
25 | A178T | with no effect

Variants of: B6
Details: with creb3_human CREB3, O43889

Row | Variant | effect of a mutation on the interaction
26 | T60N | with no effect

Variants of: B7
Details: with zgpat_human ZGPAT

Row | Variant | effect of a mutation on the interaction
27 | R8Q | with no effect
28 | S688L | with no effect

From IntAct's records for PubMed 31515488
